Measurements taken from paper PMC11870023, “A facile assay for zDHHC palmitoyl transferase activation elucidates effects of mutation and modification” (Journal of Lipid Research, 2025).

System: T1, CC(C)(COP(=O)(O)OP(=O)(O)OC[C@H]1O[C@@H](n2cnc3c(N)ncnc32)[C@H](O)[C@@H]1OP(=O)(O)O)[C@@H](O)C(=O)NCCC(=O)NCCSC(=O)CCCCCCCCCCCCCCCNc1ccc([N+](=O)[O-])c2nonc12
T1 construct: full length, HA tag kept (pEF-Bos-HA), HEK293 membrane fraction
Test: auto-S-palmitoylation of HEK293 membranes, SDS-PAGE fluorescence normalised to tag Western blot
Type: cell-based, Mus musculus
Settings: pH 7.4, 37 °C, labelled compound, covalent thioester at active-site Cys

mouse zDHHC17 (Mus musculus), sequence (chain, as listed by the source): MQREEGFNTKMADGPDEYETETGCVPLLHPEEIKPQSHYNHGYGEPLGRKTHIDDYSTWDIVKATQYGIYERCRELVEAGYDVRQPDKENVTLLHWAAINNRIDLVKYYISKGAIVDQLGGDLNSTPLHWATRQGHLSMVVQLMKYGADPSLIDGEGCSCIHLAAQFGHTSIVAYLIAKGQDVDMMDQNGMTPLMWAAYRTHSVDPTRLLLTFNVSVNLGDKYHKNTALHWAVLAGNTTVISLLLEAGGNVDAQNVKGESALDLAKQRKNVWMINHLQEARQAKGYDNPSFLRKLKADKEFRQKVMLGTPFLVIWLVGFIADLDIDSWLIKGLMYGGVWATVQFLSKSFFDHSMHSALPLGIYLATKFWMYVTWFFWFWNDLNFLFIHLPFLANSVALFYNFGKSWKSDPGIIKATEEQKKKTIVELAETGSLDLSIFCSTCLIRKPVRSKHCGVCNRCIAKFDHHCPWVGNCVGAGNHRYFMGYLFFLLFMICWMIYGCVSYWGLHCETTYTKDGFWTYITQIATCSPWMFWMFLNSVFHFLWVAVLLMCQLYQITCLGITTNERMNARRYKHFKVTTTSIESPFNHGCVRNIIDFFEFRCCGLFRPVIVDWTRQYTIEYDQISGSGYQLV

mouse zDHHC17 (Mus musculus)
Km: 6.20 ± 1.20 µM
